Our source for the Kd values is PMC11891782.

Common to all, as to test: ELISA; dose-response: 1 μg component adsorbed; rLIC_13355 serially diluted 1:1 from 1 μg, 1 h at 37 °C; anti-His mAb detection; KD by non-linear regression, one site specific binding
For assay [1], the target named is Native plasminogen, purified.
Assay [2] deals with Laminin-1 from the basement membrane of Engelbreth-Holm-Swarm mouse sarcoma (mouse) (UniProt P19137).
The target of another assay is Plasma fibronectin.

For the substance “rLIC_13355, recombinant putative lipoprotein encoded by the gene LIC_13355 of Leptospira interrogans (natural protein)”, the equilibrium dissociation constant (Kd) in assay [1] amounted to 11.8 nM; in assay [2], 18.5 nM.
“rLIC_13355, recombinant putative lipoprotein encoded by the gene LIC_13355 of Leptospira interrogans (natural protein; other documents disagree on this pair)”: the Kd in the assay with Plasma fibronectin was 3490 nM.
